According to PMC6954417:

Molecular target: DSS1 (human)
Assay: MST; labelled DSS1 50 nM constant, RAD52 1 nM to 36 uM, 30 mM Tris-acetate pH 7.5, 1 mM DTT, 25°C, quadratic binding equation

B1: RAD52 (natural protein)
chain: MSGTEEAILGGRDSHPAAGGGSVLCFGQCQYTAEEYQAIQKALRQRLGPEYISSRMAGGGQKVCYIEGHRVINLANEMFGYNGWAHSITQQNVDFVDLNNGKFYVGVCAFVRVQLKDGSYHEDVGYGVSEGLKSKALSLEKARKEAVTDGLKRALRSFGNALGNCILDKDYLRSLNKLPRQLPLEVDLTKAKRQDLEPSVEEARYNSCRPNMALGHPQLQQVTSPSRPSHAVIPADQDCSSRSLSSSAVESEATHQRKLRQKQLQQQFRERMEKQQVRVSTPSAEKSEAAPPAPPVTHSTPVTVSEPLLEKDFLAGVTQELIKTLEDNSEKWAVTPDAGDGVVKPSSRADPAQTSDTLALNNQMVTQNRTPHSVCHQKPQAKSGSWDLQTYSADQRTTGNWESHRKSQDMKKRKYDPS
Kd: 14 nM
